Molecular target: T1, Human RAD51 (human, UniProt Q06609 1-339)
T1 sequence (looked up): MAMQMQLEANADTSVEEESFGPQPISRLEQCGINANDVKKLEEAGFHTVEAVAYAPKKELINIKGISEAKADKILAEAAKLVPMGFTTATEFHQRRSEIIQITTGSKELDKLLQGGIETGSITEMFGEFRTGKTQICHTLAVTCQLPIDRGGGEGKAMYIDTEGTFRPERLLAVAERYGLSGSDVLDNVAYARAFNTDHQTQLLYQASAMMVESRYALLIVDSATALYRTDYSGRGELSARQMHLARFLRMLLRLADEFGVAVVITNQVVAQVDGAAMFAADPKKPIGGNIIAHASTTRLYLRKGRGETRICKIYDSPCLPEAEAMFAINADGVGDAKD
Assay: cell-based or functional assay

RAD51-mediated D-loop formation, RAD51 at 400 nM with added FANCI (up to 100 nM), fold activation relative to RAD51 alone: 8 fold
B1: FANCI (natural protein, UniProt Q9NVI1 1-1328, looked up)
chain: MDQKILSLAAEKTADKLQEFLQTLREGDLTNLLQNQAVKGKVAGALLRAIFKGSPCSEEAGTLRRRKIYTCCIQLVESGDLQKEIASEIIGLLMLEAHHFPGPLLVELANEFISAVREGSLVNGKSLELLPIILTALATKKENLAYGKGVLSGEECKKQLINTLCSGRWDQQYVIQLTSMFKDVPLTAEEVEFVVEKALSMFSKMNLQEIPPLVYQLLVLSSKGSRKSVLEGIIAFFSALDKQHNEEQSGDELLDVVTVPSGELRHVEGTIILHIVFAIKLDYELGRELVKHLKVGQQGDSNNNLSPFSIALLLSVTRIQRFQDQVLDLLKTSVVKSFKDLQLLQGSKFLQNLVPHRSYVSTMILEVVKNSVHSWDHVTQGLVELGFILMDSYGPKKVLDGKTIETSPSLSRMPNQHACKLGANILLETFKIHEMIRQEILEQVLNRVVTRASSPISHFLDLLSNIVMYAPLVLQSCSSKVTEAFDYLSFLPLQTVQRLLKAVQPLLKVSMSMRDCLILVLRKAMFANQLDARKSAVAGFLLLLKNFKVLGSLSSSQCSQSLSVSQVHVDVHSHYNSVANETFCLEIMDSLRRCLSQQADVRLMLYEGFYDVLRRNSQLANSVMQTLLSQLKQFYEPKPDLLPPLKLEACILTQGDKISLQEPLDYLLCCIQHCLAWYKNTVIPLQQGEEEEEEEEAFYEDLDDILESITNRMIKSELEDFELDKSADFSQSTSIGIKNNICAFLVMGVCEVLIEYNFSISSFSKNRFEDILSLFMCYKKLSDILNEKAGKAKTKMANKTSDSLLSMKFVSSLLTALFRDSIQSHQESLSVLRSSNEFMRYAVNVALQKVQQLKETGHVSGPDGQNPEKIFQNLCDITRVLLWRYTSIPTSVEESGKKEKGKSISLLCLEGLQKIFSAVQQFYQPKIQQFLRALDVTDKEGEEREDADVSVTQRTAFQIRQFQRSLLNLLSSQEEDFNSKEALLLVTVLTSLSKLLEPSSPQFVQMLSWTSKICKENSREDALFCKSLMNLLFSLHVSYKSPVILLRDLSQDIHGHLGDIDQDVEVEKTNHFAIVNLRTAAPTVCLLVLSQAEKVLEEVDWLITKLKGQVSQETLSEEASSQATLPNQPVEKAIIMQLGTLLTFFHELVQTALPSGSCVDTLLKDLCKMYTTLTALVRYYLQVCQSSGGIPKNMEKLVKLSGSHLTPLCYSFISYVQNKSKSLNYTGEKKEKPAAVATAMARVLRETKPIPNLIFAIEQYEKFLIHLSKKSKVNLMQHMKLSTSRDFKIKGNILDMVLREDGEDENEEGTASEHGGQNKEPAKKKRKK

Source: PMC6698648, “A Fanci knockout mouse model reveals common and distinct functions for FANCI and FANCD2” (Nucleic Acids Research, 2019)
